Results published in patent publication US20150265679A1, “METHOD OF REDUCING ADVERSE EFFECTS IN A CANCER PATIENT UNDREGOING TREATMENT WITH A MEK INHIBITOR” (THE UNITED STATES OF AMERICA, as represented by THE …, priority 2013, published 2015).

Key:
[1] = tested on: hfRPE monolayers; assay: Transepithelial fluid transport (JV) across hfRPE monolayers, capacitance probe technique; type: cell-based, human; details: for normal fluid absorption after MEK inhibitor: IFN-γ (15 ng/ml, FIG. 10B) to basal bath after 72 hours 10 μM plus acute 100 μM MEK inhibitor; for rescue of apical MEK inhibitor-induced reduction in fluid absorption: basolateral IFN-γ (10 ng/ml, FIGS. 11A, 11B) after acute apical MEK inhibitor
Description: Confluent monolayers of hfRPE cultured on transwells were mounted in an electrophysiological chamber and transepithelial water flow (JV) measurements were made with a capacitance probe technique as described previously in Maminishkis 2006; Shi, G., et al., Invest Ophthalmol Vis Sci, 2008, 49, 4620-4630; Edelman, J. L., et al., Invest Ophthalmol Vis Sci, 1991, 32, 3033-3040; Jiang, C., et al., Science, 1993, 262, 424-427; and Maminishkis, A., et al., Invest Ophthalmol Vis Sci, 2002, 43, 3555-3566, each incorporated herein by reference in its entirety. In brief, the RPE is mounted in a water-jacketed ? ssing chamber and oriented vertically with the apical and basolateral membranes separately exposed to Ringer's solution held in bathing reservoirs. Stainless steel probes (Accumeasure System 1000; MT Instruments, Latham, N.Y.) are lowered into the apical and basolateral bathing wells to measure the capacitance of the air gap between the probe and fluid meniscus. Fluid transport rate JV (μl·cm^−2·hr^−1) is determined by monitoring the fluid movement-induced changes in the air gap capacitance at the apical and basolateral baths. The probes on both sides of the tissue are backed off from the surface of the Ringer's solution during a bathing solution change.
The capacitance probes are moved away from the bathing reservoirs and fresh control Ringer's solution perfused into the chamber. The fluid transport apparatus also allows continuous monitoring of TEP and RT, but for technical reasons (e.g., solution perfusion rates, TEP/RT sampling rates, and electrode stability) the initial changes in TEP and RT can only be compared to those seen in the electrophysiology experiments. Experiments are continued only if JV, TEP, and RT are not appreciably altered by this control-to-control Ringer's solution change. The water jacketed ? ssing chamber is placed in an incubator to maintain steady-state control over temperature, pCO2, and humidity.
Tissue viability was ascertained by recording transepithelial potential (TEP) and total tissue resistance (RT). It should be noted that the solution composition changes in this chamber were relatively slow (≈1-2 chamber volumes per minute) and the data sampling rate was once per minute, more than two orders of magnitude slower than the sampling rate in the electrophysiology chamber (see below). Therefore it was not possible to record fast changes, in seconds or minutes, in JV, TEP, or RT. After addition of IFNγ to the apical or basal baths, steady-state JV, TEP, and RT were recorded for 20-30 minutes. In control experiments, successive additions of IFNγ were made to test for the repeatability and reversibility of responses.
Effects of MEK inhibitor on human fetal retinal pigment epithelium (hfRPE) were measured following acute and chronic addition of inhibitor. Experiments were performed using hfRPE monolayers grown on semipermeable inserts with media access to apical and basal sides of the epithelium. In different sets of experiments, MEK inhibitor was added to apical, basal, or both sides of hfRPE mounted in modified ? ssing chambers. In chronic experiments hfRPE were pre-treated with 10 μM MEK inhibitor added to apical and basal baths for 24, 48, or 72 hours. For chronic experiments lasting more than 24 hours, transepithelial resistance (TER) was measured daily. Prior to the transfer of the epithelial monolayer to the ? ssing chamber, the TER of whole insert was compared to the TER measured in the ? ssing chamber. This procedure helps confirm the tissue integrity following the transfer from the cell culture insert to the ? ssing chamber. The TER summary data for chronic experiments contains cumulative recordings of TER obtained from inserts and ? ssing chambers.

[2] = tested on: patients with uveitic cystoid macular edema; assay: Phase I open label trial of topical IFNγ in patients with CME secondary to uveitis; type: in vivo, human
Method: A phase I open label clinical trial was conducted aimed at investigating the safety and tolerability of topically applied IFN gamma in patients with uveitic cystoid macular edema. To test whether cystoid macular edema (CME), secondary to uveitis, is caused by the disequilibrium of the JAK/STAT and mTor signal transduction pathways in the retinal pigment epithelium (RPE), IFNγ was topically applied in human patients. Five participants with CME secondary to uveitis received a topical ocular instillation of IFNγ in a Phase I, non-randomized, prospective, uncontrolled, dose-escalation, single-center study. The study involved a one-time instillation or series of instillations of IFNγ on the cornea and measurement of a response with optical coherence tomography (OCT) over a three hour period.
A 25% decrease in macular thickness is observed at a post-instillation as compared to baseline. In the study, the first two participants received one instillation (each instillation contains 10 μg in 0.05 mL solution) on the cornea at time zero, the next two participants received two instillations, 10 minutes apart, for a total dosage of 20 and the final participant received three instillations, 10 minutes apart, for a total of 30 μg. OCT was obtained at −60 minutes, −30 minutes and just before the instillation(s). Repeat OCTs were taken at +30 minutes, +60 minutes and +120 minutes. All participants returned for a one-week safety visit.
The primary outcome was the change in central macular thickness as measured by OCT in response to interferon IFNγ as compared with baseline. Secondary outcomes included changes in macular volume as measured by OCT, visual acuity, intraocular pressure, intraocular inflammation and ocular surface irritation assessed by fluorescein staining of the cornea and conjunctiva to assess toxicity. For safety measurements, the following were measured: the presence of ocular surface irritation assessed by fluorescein staining of the cornea and conjunctiva to assess toxicity; the number and severity of systemic and ocular toxicities and adverse events; and the proportion of participants with a visual loss of ≧15 ETDRS letters.
All participants undergo a dilated ophthalmic examination the day of the testing. One eye is chosen as the study eye. The participants receive the evaluation around 12:00 p.m. Participants then have a OCT at −60 minutes, −30 minutes and just before the ocular instillation. The ocular instillation occurs no earlier than 1:00 p.m. Repeat OCT recordings are taken at +30, +60 and +120 minutes after instillation. There is a window of ±15 minutes for each OCT test.
OCT testing is performed with the Cirrus™ high-definition OCT (Carl Zeiss Meditec, Inc.) scanner using a 512×128 scan pattern where a 6×6-mm area on the retina is scanned with 128 horizontal lines, each consisting of 512 A-scans per line (a total of 65,536 sampled points) within a scan time of 2.4 seconds. The scanner automatically focuses on the macula. Data for macular thickness calculations are collected from an array of A-scans distributed across the macular using the macular thickness analysis algorithm. The three pre-instillation measurements are averaged to calculate the baseline macular thickness measurement. Post-instillation OCT macular thickness calculations (+30, +60 and +120 minutes) is compared to the baseline measurement separately. A 25% reduction in central macular thickness is observed in treated patients.
Interferon γ-1b is administered as follows: • 1. Topical tetracaine 1% or proparacaine 0.5% drops are applied to the study eye surface one to two minutes prior to instillation. • 2. The participant applies punctal pressure to his/her […] eye. • 3. The investigator holds the participant's study eye open. • 4. A volume of 0.05 mL of IFNγ is instilled on the center of the study eye's cornea from a tuberculin syringe. • 5. […]

[3] = tested on: patients with central serious chorioretinopathy; assay: Topical IFN gamma in patients with central serious chorioretinopathy (ongoing trial); type: in vivo, human
Description: Topical IFN gamma was also studied in the treatment of serious retinal detachments in patients with central serious chorioretinopathy. […] This occurred during the second week of a two-week course of therapy.

[4] = tested on: hfRPE monolayers; details: IFN-γ in basal bath, increased from 7; Li et al., 2009; cited from earlier work
[5] = tested on: animal model of retinal-reattachment; details: topical addition, cited from earlier work

B1: IFNγ: interferon-γ or, equivalently, interferon-γ1b (CAS number 82115-62-6), pleiotropic cytokine (protein, UniProt P01579 24-161, looked up)
Interferon gamma: QDPYVKEAENLKKYFNAGHSDVADNGTLFLGILKNWKEESDRKIMQSQIVSFYFKLFKNFKDDQSIQKSVETIKEDMNVKFFNSNKKKRDDFEKLTNYSVTDLNVQRKAIHELIQVMAELSPAAKTGKRKRSQMLFRG
normal fluid absorption after MEK inhibitor [1]: rescue of fluid transport
normal fluid absorption after MEK inhibitor ([1]; listed as IFN-γ): partially restored
restoration of MEK inhibitor-decreased fluid absorption ([1]; IFN-γ added to basolateral bath after chronic 10 μM (72 hours) plus acute apical 100 μM MEK inhibitor): almost completely restored
increase of JV ([1]; IFNγ 5 ng/ml in the basal bath (FIG. 7)): ~8.6 μl·cm−2·hr^−1
fluid transport across RPE ([1]; IFNγ added to the basal side of hfRPE (FIG. 7)): significantly increase
cell viability as measured by TEP and RT ([1]; IFNγ treatment of hfRPE): did not affect cell viability
rescue of apical MEK inhibitor-induced reduction in fluid absorption [1]: reverse
rescue of apical MEK inhibitor-induced reduction in fluid absorption ([1]; listed as IFN-γ): almost completely rescued
mean JV after IFNγ ([1]; increased from 12.9±1.6, mean±SEM, p<0.01): 20.5±3.1 μl·cm−2·hr^−1
ocular surface irritation by slit lamp exam ([2]; 5 patients): no patient developed evidence of ocular surface irritation
serious adverse events ([2]; 5 patients): no serious adverse events
tolerability of drops ([2]; 5 patients, 1-week period): well tolerated
patients reporting irritation or other new ocular complaints ([2]; 5 patients, during 1-week period or beyond): none of the 5 patients
thickness and volume of macular edema by OCT ([2]; most patients): slight (albeit clinically insignificant) decrease
decrease in (central) macular thickness by OCT compared to baseline ([2]; topical instillation 10-30 μg, post-instillation +30, +60, +120 minutes): 25%
resolution of redness after cessation of drops ([3]; both affected patients, no persistent ocular changes): within one day
clinical outcome in serious retinal detachments ([3]; four patients studied so far): some clinical success
painless conjunctival injection with no change in vision ([3]; second week of a two-week course of therapy): two of the four patients
steady state Jv after IFN-γ [4]: 16 μl·cm−2·hr^−1
subretinal fluid ([5]; monitored by high resolution OCT): remove fluid from the subretinal space
JAK/STAT pathway [5]: activated
